Publication PMC11371196, “PLASMODESMATA-LOCATED PROTEIN 6 regulates plasmodesmal function in Arabidopsis vasculature” (The Plant Cell, 2024)
Each block holds one binder with its values, some of them ahead of it. Where no end group is shown, it is not given here.

Assays:
[1] = target: T1, maltose binding protein fused SUS6 (Arabidopsis thaliana, UniProt Q9FX32 1-942); assay: pull-down; 1 μg biotinylated peptide with 1 μg MBP or MBP fusion protein in 300 μL binding buffer (50 mM Tris pH 7.5, 150 mM NaCl, 0.05% NP-40), 4 °C overnight; Dynabeads MyOne Streptavidin C1; immunoblot with MBP antibody; conditions: both partners purified
T1 construct: SUCROSE SYNTHASE 6 (SUS6), Arabidopsis thaliana, At1G73370; also called MBP-SUS6; pET-MBP-SUS6; source: E. coli Rosetta, purified (amylose resin); not shown: MBP, N-terminal, kept
T1 sequence (Q9FX32 whole entry, the tested form may be a part): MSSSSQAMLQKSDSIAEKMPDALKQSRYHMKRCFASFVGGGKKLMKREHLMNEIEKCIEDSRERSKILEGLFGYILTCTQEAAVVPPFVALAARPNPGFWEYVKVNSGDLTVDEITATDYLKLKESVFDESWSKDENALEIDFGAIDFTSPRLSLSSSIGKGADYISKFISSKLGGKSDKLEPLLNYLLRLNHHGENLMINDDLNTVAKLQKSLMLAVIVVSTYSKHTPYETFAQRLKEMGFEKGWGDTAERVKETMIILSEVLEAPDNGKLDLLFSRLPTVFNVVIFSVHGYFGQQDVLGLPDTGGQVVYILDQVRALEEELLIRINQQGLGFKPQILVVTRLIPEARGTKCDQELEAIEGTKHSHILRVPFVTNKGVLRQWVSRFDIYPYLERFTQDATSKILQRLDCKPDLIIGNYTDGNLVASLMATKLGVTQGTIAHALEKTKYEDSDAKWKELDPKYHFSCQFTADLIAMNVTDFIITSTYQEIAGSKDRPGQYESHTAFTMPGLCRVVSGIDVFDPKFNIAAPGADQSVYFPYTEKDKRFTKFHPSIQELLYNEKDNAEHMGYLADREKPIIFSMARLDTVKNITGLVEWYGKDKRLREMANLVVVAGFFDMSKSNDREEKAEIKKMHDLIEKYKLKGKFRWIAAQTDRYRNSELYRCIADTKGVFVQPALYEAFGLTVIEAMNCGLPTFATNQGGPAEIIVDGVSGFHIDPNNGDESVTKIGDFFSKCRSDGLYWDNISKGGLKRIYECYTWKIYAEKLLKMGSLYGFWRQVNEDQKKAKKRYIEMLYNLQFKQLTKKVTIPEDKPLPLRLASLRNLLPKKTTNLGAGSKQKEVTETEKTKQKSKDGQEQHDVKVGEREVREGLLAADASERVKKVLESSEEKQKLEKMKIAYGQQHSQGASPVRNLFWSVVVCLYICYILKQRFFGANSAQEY

free MBP = free MBP (UniProt P0AEX9 27-396 = MBP); assay: as above; conditions: both partners purified

binding result [1]: binds
B1: biotinylated C-terminal tail of PDLP5 (peptide)
peptide: GKCCRKLQDEKWCK
modifications: cysteine pairing not given here; also: biotin (position not given here)
notes: C-terminal tail of PDLP5, Arabidopsis thaliana, At1g70690; also called PDLP5-CT-biotin; source: synthetic peptide, bought: PEPTIDE 2.0

binding result (free MBP): binds
B2: biotinylated C-terminal tail of PDLP7 (peptide)
peptide: RGVCSRGGDFSILHSFTLI
modifications: also: biotin (position not given here)
notes: C-terminal tail of PDLP7, Arabidopsis thaliana, At5G37660; also called PDLP7-CT-biotin; source: synthetic peptide, bought: PEPTIDE 2.0

binding result [1]: binds
B3: biotinylated C-terminal tail of PDLP6 (peptide)
peptide: AKSCERGKGGK
modifications: also: biotin (position not given here)
notes: C-terminal tail of PDLP6, which faces the cytoplasmic sleeve; Arabidopsis thaliana, At2g01660; also called PDLP6-CT-biotin; source: synthetic peptide, bought: PEPTIDE 2.0
